In patent US11219221B2 (FarmHannong Co., Ltd., priority 2017, dated 2022):
Positions count from the first letter of the chain named. Names and notes keep the numbering of the source.

B1: V305M + F360M: CyPPO16 variant (protein)
chain: MLDSLIVGAGISGLSAAHTLQKQQTQFLVTESQGRVGGNITTNRQGDYLWEEGPNSFAPTEDLLRLAVEVGLKEDLVFADRRLPRFVYWNQQLHPVPMSPPAALKTQLLSEAGKWRAALGALGFVGGLVGREEETVRQFFTRHLGTEVTERLVAPFVSGVYAGDVDQLSAQAAFRRVFEFAQLGGGLAAGGILARRQAPPKAPPDPSLPETKTGQLGSFREGLEMLPRAIASQLGDRLKLQWRLTHLEITPQQTYLAHFNTPDGPQQIATRTLILTTPAPITADLLKPLTPALHGVLKEIYYPPMACVVLAYPRAASARPLEGFGHLIPRNQGIRTLGTIWSSCLFPGRTPEGEHLLTNMIGGATDPGIAQLDPEEIAQAVHQDLCKILIRPEFTPKILAVRLWKQAIPQYTLGHLQRLATLEQELSKFPGLHILANYTDGVALGDCVKRGVAVAQKIRSRE
modifications: Synthetic (Protoporphyrinogen IX oxidase (CyPPO16) of Spirulina subsalsa)
notes: CyPPO16 variant
B2: A162L + V305M + F360M (protein)
chain: B1 chain with A162L
modifications: Synthetic (Protoporphyrinogen IX oxidase (CyPPO16) of Spirulina subsalsa)
B3: V305M + L327T + F360M (protein)
chain: B1 chain with L327T
modifications: Synthetic (Protoporphyrinogen IX oxidase (CyPPO16) of Spirulina subsalsa)
B4: A162C + V305M + L327T + F360M (protein)
chain: B1 chain with A162C, L327T
modifications: Synthetic (Protoporphyrinogen IX oxidase (CyPPO16) of Spirulina subsalsa)
B5: R85A + V160C + A162L + V305M + F360M (protein)
chain: B1 chain with R85A, V160C, A162L
modifications: Synthetic (Protoporphyrinogen IX oxidase (CyPPO16) of Spirulina subsalsa)
B6: V160C + A162C + V305M + L327T + F360M (protein)
chain: B1 chain with V160C, A162C, L327T
modifications: Synthetic (Protoporphyrinogen IX oxidase (CyPPO16) of Spirulina subsalsa)
B7: V305M: CyPPO16 variant (protein)
chain: B1 chain with M360F
modifications: Synthetic (Protoporphyrinogen IX oxidase (CyPPO16) of Spirulina subsalsa)
notes: CyPPO16 variant
B8: F324V: CyPPO16 variant (protein)
chain: B1 chain with M305V, F324V, M360F
modifications: Synthetic (Protoporphyrinogen IX oxidase (CyPPO16) of Spirulina subsalsa)
notes: CyPPO16 variant
B9: L327T: CyPPO16 variant (protein)
chain: B1 chain with M305V, L327T, M360F
modifications: Synthetic (Protoporphyrinogen IX oxidase (CyPPO16) of Spirulina subsalsa)
notes: CyPPO16 variant
B10: F360M: CyPPO16 variant (protein)
chain: B1 chain with M305V
modifications: Synthetic (Protoporphyrinogen IX oxidase (CyPPO16) of Spirulina subsalsa)
notes: CyPPO16 variant
B11: F360V: CyPPO16 variant (protein)
chain: B1 chain with M305V, M360V
modifications: Synthetic (Protoporphyrinogen IX oxidase (CyPPO16) of Spirulina subsalsa)
notes: CyPPO16 variant
B12: F360T: CyPPO16 variant (protein)
chain: B1 chain with M305V, M360T
modifications: Synthetic (Protoporphyrinogen IX oxidase (CyPPO16) of Spirulina subsalsa)
notes: CyPPO16 variant
B13: R85A + V160C + A162C + V305M + L327T + F360M: CyPPO16 variant (protein)
chain: B1 chain with R85A, V160C, A162C, L327T
modifications: Synthetic (Protoporphyrinogen IX oxidase (CyPPO16) of Spirulina subsalsa)
notes: CyPPO16 variant
B14: R85A: CyPPO16 variant (protein)
chain: B1 chain with R85A, M305V, M360F
modifications: Synthetic (Protoporphyrinogen IX oxidase (CyPPO16) of Spirulina subsalsa)
notes: CyPPO16 variant

tested on: CyPPO16; test: Herbicide tolerance test of CyPPO16 wild type and variants in PPO-deficient E. coli BT3(ΔPPO); type: cell-based, Spirulina subsalsa; conditions: BT3(ΔPPO) transformants, two or more amino acid mutations; dark, 37° C., 16 to 20 hours; relative to wild type at highest concentration (50, 200 μM)
Protocol: The mutated CyPPO gene obtained from the Example 2 was transformed to BT3 (ΔPPO) strain which is deficient of PPO activity and cultured in LB media with PPO-inhibiting herbicide, thereby examining whether growth of transformed BT3 was not inhibited.
BT3 competent cells were transformed with the pET303-CyPPO16 and pET303-CyPPO17 plasmids and those with a mutation(s) constructed in Example 2 respectively, and were cultured in LB agar media containing carbenicillin (Gold Biotechnology, Co., Ltd.).
Single colony of E. coli transformed with each CyPPO gene was cultured in 3 ml of LB broth containing carbenicillin overnight, and then was subcultured until absorbance (0D600) reached 0.5 to 1. Then, it was diluted with LB broth to OD600=0.5. Again, the diluted solution was serially diluted 4 times by a factor of one tenth.
The LB agar media (LB 25 g/l, Bacto agar 15 g/l) containing carbenicillin (100 μg/ml) and 0 to 4,000 μM of various herbicides dissolved in DMSO was prepared. Next, 10 μl of each diluted solution was dropped on the plate and cultured at 37° C. under light (Tables 7 and 9, FIGS. 2 to 6, and 18 to 22) or dark (Tables 8 and 10, FIGS. 7 to 17, and 23 to 33) for 16 to 20 hours. Then, extent of tolerance was evaluated.
The extent of herbicide tolerance of the mutated genes was evaluated by comparing that of mutated genes with that of wild type. The relative tolerance was represented with “+” as a factor of 10 times. Evaluation result was listed in Tables 7 to10 and FIGS. 2 to 33:
In Tables 7 to 10, tolerance level was presented as of tolerance of wild type and of variants equivalent to that of wild type, and was done as ‘+’ per each 10 fold resistance until ‘+++++’ as maximal resistance. (Tolerance level was evaluated by relative growth level of variants to that of wild type in the media containing highest concentration of herbicide; ‘+’=1-9 fold higher tolerance, ‘++’=10-99 fold higher tolerance, ‘+++’=100-999 fold higher tolerance, ‘++++’=1,000-9,999 fold higher tolerance, ‘+++++’=more than 10,000 fold higher tolerance)
The concentrations of herbicides were written above the photographs of tolerance test. A dilution series (0D600=0.5, 0.05, 0.005, 0.0005, 0.00005) was made and spotted on LB agar plates supplemented with herbicides.

Row | Molecule | Herbicide tolerance, tiafenacil
1 | B1 | +++ (‘+++’=100-999 fold higher tolerance)
2 | B2 | +++++ (‘+++++’=more than 10,000 fold higher tolerance)
3 | B3 | +++++ (‘+++++’=more than 10,000 fold higher tolerance)
4 | B4 | +++++ (‘+++++’=more than 10,000 fold higher tolerance)
5 | B5 | +++++ (‘+++++’=more than 10,000 fold higher tolerance)
6 | B6 | +++++ (‘+++++’=more than 10,000 fold higher tolerance)

same assay, conditions: BT3(ΔPPO) transformants, two or more amino acid mutations; dark; relative to wild type at highest concentration (25, 50 μM)

Row | Molecule | Herbicide tolerance, flumioxazin
7 | B1 | ++++ (‘++++’=1,000-9,999 fold higher tolerance)
8 | B2 | +++++ (‘+++++’=more than 10,000 fold higher tolerance)
9 | B3 | +++++ (‘+++++’=more than 10,000 fold higher tolerance)
10 | B4 | +++++ (‘+++++’=more than 10,000 fold higher tolerance)
11 | B5 | +++++ (‘+++++’=more than 10,000 fold higher tolerance)
12 | B6 | +++++ (‘+++++’=more than 10,000 fold higher tolerance)

same assay, conditions: BT3(ΔPPO) transformants, two or more amino acid mutations; dark; relative to wild type at highest concentration (2000, 4000 μM)

Row | Molecule | Herbicide tolerance, sulfentrazone
13 | B1 | + (‘+’=1-9 fold higher tolerance)
14 | B2 | ++++ (‘++++’=1,000-9,999 fold higher tolerance)
15 | B3 | ++++ (‘++++’=1,000-9,999 fold higher tolerance)
16 | B4 | ++++ (‘++++’=1,000-9,999 fold higher tolerance)
17 | B5 | +++++ (‘+++++’=more than 10,000 fold higher tolerance)
18 | B6 | +++++ (‘+++++’=more than 10,000 fold higher tolerance)

tested on: CyPPO16; test: PPO enzyme activity of MBP-fused CyPPO16 wild type and variants; type: biochemical, Spirulina subsalsa; conditions: PPO enzyme activity relative to wild type; MBP-fused protein, 50 μM protoporphyrinogen IX, room temperature, 30 min
Protocol: Thus, PPO proteins of wild type and variants were expressed as fused to MBP and were used for experiments.
The following process for purification of PPO protein was performed in a 4° C. cold room. Amylose resin (NEB) was packed to 1.5×15 cm column (Bio-Rad, Econo Columns 1.5×15 cm, glass chromatography column, max. vol), and the obtained protein extracts were loaded to the column at a flow rate of 0.2 ml/min. The column was washed with 3 column volumes of buffer and the presence of protein in the washing solution was examined. When the protein was no longer detected, the washing procedure was terminated. Then, the MBP-PPO protein was eluted with approximately 2 column volumes of buffer containing 20 mM maltose. The protein concentration of each eluent was determined and the elution was stopped when the protein was no longer detected. Ten microliter of each fraction was investigated for protein quantification and SDS-PAGE analysis. The highly pure fractions of PPO protein variants were used for the enzyme assay.
Since protoporphyrinogen IX, a substrate of PPO protein, was not commercially available, it was chemically synthesized in the laboratory. Overall process was performed in dark under nitrogen stream. […] of protoporphyrin IX was dissolved in 20 ml of 20% (v/v) EtOH, and stirred under dark condition for 30 minutes. The obtained protoporphyrin IX solution was put into a 15 ml screw tube in an amount of 800 μl, and flushed with nitrogen gas for 5 minutes. To this, 1.5 g of sodium amalgam was added and vigorously shaken for 2 minutes. The lid was opened to exhaust hydrogen gas in the tube. Thereafter, the lid was closed and incubated for 3 minutes. The protoporphyrinogen IX solution was filtered using syringe and cellulose membrane filter. […] To determine the enzyme activity of PPO protein, a reaction mixture was prepared with the following composition (based on 10 ml): 50 mM Tris-Cl (pH 8.0); 50 mM NaCl; 0.04% (v/v) Tween 20; 40 mM glucose (0.072 g); 5 units glucose oxidase (16.6 mg); and 10 units catalase (1 μl).
Hundred and eighty microliters of a reaction mixture containing the purified PPO protein were placed in 96 well plates and 20 μl of […] were added. […] The reaction proceeded at room temperature for 30 min and the fluorescence of protoporphyrin IX was measured using Microplate reader (Sense, Hidex) (excitation: 405 nm; emission: 633 nm). […] To this, 2.7 N HCl was added, and the absorbance at 408 nm was measured. A standard curve was generated using standard protoporphyrin IX, and PPO activity was measured by calibration of protoporphyrin IX using the standard curve of protoporphyrin IX.
Activities of variants were presented relatively compared to that of wild type.

Row | Molecule | Activity (%)
19 | B1 | 35
20 | B7 | 72
21 | B8 | 23
22 | B9 | 68
23 | B10 | 83
24 | B11 | 69
25 | B12 | 25
26 | B13 | 13
27 | B14 | 94
